1 substance from US20190271710A1 can be followed below.

Assay [1] concerns the target p217+ tau peptides (endogenous human tau protein or tau fragments phosphorylated at T217 and/or T212) (human) (UniProt P10636). Kind of assay: Simoa sandwich ELISA, pT3 capture beads, pooled AD CSF diluted 1:2. (In general: ELISA stands for enzyme-linked immunosorbent assay.)
For assay [2] the target is unchanged. Kind of assay: Simoa sandwich ELISA, pT3 capture beads, pooled AD CSF diluted 1:8.
Assay [3] shares this target. Kind of assay: Simoa sandwich ELISA, pT3 capture beads, pooled AD CSF diluted 1:4.
The target is the same in assay [4]. Kind of assay: Simoa sandwich ELISA, pT3 capture beads, pooled AD CSF diluted 1:64.
For assay [5] the target is unchanged. Kind of assay: Simoa sandwich ELISA, pT3 capture beads, pooled AD CSF diluted 1:16.
Assay [6] has the same target. Kind of assay: Simoa sandwich ELISA, pT3 capture beads, pooled AD CSF diluted 1:32.

p217+ tau peptides (endogenous human tau protein or tau fragments phosphorylated at T217 and/or T212) (human), sequence (P10636 other isoform, or with tags, fused parts or gaps limits assumed): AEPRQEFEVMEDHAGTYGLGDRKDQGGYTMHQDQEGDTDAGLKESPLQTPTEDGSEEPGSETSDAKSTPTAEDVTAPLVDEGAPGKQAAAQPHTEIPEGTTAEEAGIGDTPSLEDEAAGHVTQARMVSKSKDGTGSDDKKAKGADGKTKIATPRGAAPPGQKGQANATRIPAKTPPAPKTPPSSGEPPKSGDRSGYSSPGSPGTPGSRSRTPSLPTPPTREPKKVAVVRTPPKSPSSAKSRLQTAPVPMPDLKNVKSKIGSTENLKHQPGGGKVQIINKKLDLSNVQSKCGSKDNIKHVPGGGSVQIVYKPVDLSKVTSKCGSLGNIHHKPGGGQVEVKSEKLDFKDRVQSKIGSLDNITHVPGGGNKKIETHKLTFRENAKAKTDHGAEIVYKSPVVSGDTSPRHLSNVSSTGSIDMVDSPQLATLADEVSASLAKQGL

In assay [1], “Quanterix tau 2.0 assay detector (antibody)” returned a S/N @ 1:2 dilution of 525 S/N. The substance also yielded a S/N @ 1:8 dilution in assay [2] of 147 S/N. The same substance gave a S/N @ 1:4 dilution in assay [3] of 262 S/N. In assay [4], the S/N @ 1:64 dilution amounted to 19 S/N. Also, the S/N @ 1:16 dilution in assay [5] came to 75 S/N. The substance also displayed a S/N @ 1:32 dilution in assay [6] of 35 S/N.
